{"source": "patent US20210269549A1", "about": "“ANTI-SAS1B ANTIBODIES, ASSOCIATED METHODS OF USE, AND COMPOSITIONS AND METHODS FOR DETECTING AND TREATING CANCER” (UNIVERSITY OF VIRGINIA PATENT FOUNDATION, priority 2015, published 2021)", "key": {"[1]": {"target": "T1, human SAS1B protein with a C-terminal V5 tag expressed by HEK293T cells (Homo sapiens, UniProt Q6HA08)", "T1 construct": "expressed in transfected cells; host or cells: HEK293T", "T1 sequence (Q6HA08 24-431)": "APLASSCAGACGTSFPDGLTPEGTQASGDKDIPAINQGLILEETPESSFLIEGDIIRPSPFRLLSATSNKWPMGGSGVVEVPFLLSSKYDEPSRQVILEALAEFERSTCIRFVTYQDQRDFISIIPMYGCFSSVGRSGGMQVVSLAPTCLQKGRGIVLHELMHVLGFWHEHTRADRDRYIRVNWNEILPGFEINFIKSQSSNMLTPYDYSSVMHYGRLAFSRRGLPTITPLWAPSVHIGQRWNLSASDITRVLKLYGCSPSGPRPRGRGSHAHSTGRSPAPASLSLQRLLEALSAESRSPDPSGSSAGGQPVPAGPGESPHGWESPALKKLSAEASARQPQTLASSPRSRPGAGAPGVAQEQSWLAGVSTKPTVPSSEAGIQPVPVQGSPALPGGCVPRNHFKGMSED", "experiment": "Double immunofluorescence on fixed and permeabilized HEK293T cells transfected with SAS1B SV-A with V5 tag", "assay_type": "cell-based", "conditions": "for IF signal / colocalization with V5-tag epitope signal: SV-A transfected HEK293T, PFA fixed, methanol permeabilized, mAbs at 10 ug/ml", "description": "Experiments were conducted to determine the specificity of anti-human SAS1B monoclonal antibodies SB1, SB2, SB3, SB4, SB5, SB6 and SB7 against the human SAS1B protein with a C-terminal V5 tag expressed by HEK293T cells by double immuno-fluorescence from two different SAS1B epitopes. HEK293T cells were seeded at ˜100,000 per well of a 24 well plate containing a lysine-coated 12 mm coverslip. 24 hours later, the cells were transfected with 1 ug of SV-A plasmid with 2 ul of TURBOFECT® transfection reagent followed by no change of media. 48 h later the cells were PFA (paraformaldehyde) fixed and methanol permeabilized for an IF study as follows.\nThe cells were removed from cell culture media and fixed in 4% PFA in PBS, 300 ul for 15 min. The cells were washed in 1 ml PBS in wells for 3 times and permeabilized in methanol (100%) for 15 min in 0.5 ml at RT. The cells were washed in PBS 1 ml for 3 times and blocked in complete culture media (DMEM) with 5% normal goat serum (NGS) for 30 min (i.e. BB, blocking buffer). The first antibody in BB was added for 1 h at 10 ug/ml for mouse monoclonal antibodies (SB1, SB2, SB3, SB4, SB5, SB6, SB7) and 5 ug/ml for anti-V5 DYLIGHT® 488 (green) rabbit (a rabbit polyclonal antibody to V5 tag). The cells were washed in PBS 3 times. The second antibody in BB (Goat anti-mouse Alexa Flour 594, red) was added for 1 h at 5 ug/ml (1:200 dilution). The cells were washed in PBS 3 times. The cells were mounted in slow fade DAPI 3 ul and stored at 4° C. before confocal imaging."}, "[2]": {"tested_on": "human uterine cancer cells", "experiment": "ADC assay on human uterine cancer cells using Fab-anti-mouse IgG Fc (Duocarmycin DM conjugated or unconjugated)", "assay_type": "cell-based", "conditions": "for Cytotoxic effect / Viability: 4 days; for Cell killing effects as antibody-duocarmycin conjugates on SAS1B+ human tumor cells (FIG. 28): uterine tumor cells in vitro; for Viability: 0.01 nM mAb", "description": "The cytotoxic effect of anti-human SAS1B monoclonal antibodies SB1, SB3 and SB4 on human uterine cancer cells was investigated by ADC assay using Fab-anti-mouse IgG Fc conjugated to Duocarmycin DM with a cleavable linker. An average of 3 experiments were done in triplicate. […] At 0.01 nM the viability was only 40% compared to ˜80% viability for SB4 mAb.\nThe cytotoxic effect of anti-human SAS1B mAbs SB1, SB2, SB3, SB4 and SB5 on human uterine cancer cells by ADC assay using unconjugated Fab-anti-mouse IgG Fc was examined. An average of 1 or 2 experiments in triplicate were performed. […] See FIGS. 10A-B. The cytotoxic effect of anti-human SAS1B mAbs SB1, SB2, SB3, SB4, and SB5 was tested on human uterine cancer cells by ADC assay using Fab-anti-mouse IgG Fc conjugated to Duocarmycin DM with cleavable linker. An average of 3 experiments were completed in triplicate. […] At 0.01 nM the viability for SB3, SB2, SB4 and SB5 were 42%, 66%, 80% and 87% respectively."}, "[3]": {"conditions": "Fab-anti-mouse IgG Fc conjugated to Duocarmycin DM with cleavable linker"}, "[4]": {"conditions": "isotype-specific unconjugated Fab"}}, "note": "“And” between values parts separate entries of the source, which are not always exact repeats. Identical values can stand only once. “Also recorded” adds a separate entry of the source.", "data": [{"molecule": "SB1: mouse anti-SAS1B monoclonal antibody, IgG2a; VH SEQ ID NO:12, VL SEQ ID NO:13 (antibody, listed as Mus musculus, V domains shown) VH: EVQLQQSGPELVKPGSSVKISCKASGYTFTDYNMDWVKQSHGKSLEWIGAINPNNGGTSYNQKFKGKATLTVDKSSSTAYMELRSLTSEDSAVYYCATNEYWGQGTTLTVSS VL: NIVMTQSPKSMSMSVGERVTLSCKASENVGTYVSWYQQKPEQSPKLLIYGASNRYTGVPDRFTGSGSATDFTLTISSVQAEDLADYHCGQSYSYPWTFGGGTKLEIK", "values": [{"measurement": "IF signal / colocalization with V5-tag epitope signal", "setting": "[1]", "result": "lack of a signal"}, {"measurement": "Signal on mock transfected HEK293T cells", "setting": "[1]", "result": "no V5 signal or SAS1B signal"}, {"measurement": "Cytotoxic effect", "setting": "[2]; [3]", "result": "no cytotoxic effect"}, {"measurement": "Cytotoxic effect", "setting": "[2]; [4]", "result": "no cytotoxic effect"}, {"measurement": "Cell killing effects as antibody-duocarmycin conjugates on SAS1B+ human tumor cells (FIG. 28)", "setting": "[2]", "result": "no cytotoxic effects"}]}, {"molecule": "SB2: mouse anti-human SAS1B monoclonal antibody, IgG2b; VH SEQ ID NO:14, VL SEQ ID NO:15 (antibody, listed as Mus musculus, V domains shown) VH: EVQLQQSGPELVKPGSSVKISCKASGYTFTDYNMVWVKQSHGKSLEWIGAVNPNNGGTSYNQKFKGKATLTVDKSSSTAYMELRSLTSEDSAVYYCVPNWDWFAYWGQGTLVTVSA VL: DVLMTQTPLSLPVSLGDQASISCRSSQSLVHSNGNTYLEWYLQKPGQSPNLLIYKVSNRFSGVPDRFSGSGSGTDFTLKISRVEAEDLGVYYCFQGSHVPFTFGSGTKLEIK", "values": [{"measurement": "IF signal / colocalization with V5-tag epitope signal", "setting": "[1]", "result": "colocalize (merge) with V5-tag epitope signal"}, {"measurement": "Signal on mock transfected HEK293T cells", "setting": "[1]", "result": "no V5 signal or SAS1B signal"}, {"measurement": "Cytotoxic effect", "setting": "[2]; [3]", "result": "strong cytotoxic effect at 0.1 nM and higher concentrations"}, {"measurement": "Cytotoxic effect", "setting": "[2]; [4]", "result": "no cytotoxic effect"}, {"measurement": "Cell killing effects as antibody-duocarmycin conjugates on SAS1B+ human tumor cells (FIG. 28)", "setting": "[2]", "result": "sub-nanomolar concentrations"}]}, {"molecule": "SB5: mouse anti-human SAS1B monoclonal antibody, IgG2b; VH SEQ ID NO:16, VL SEQ ID NO:18 (antibody, listed as Mus musculus, V domains shown) VH: EVQLQQSGPELVKPGSSVKISCKPSGYTFTDYNMVWMKQSHGKSLEWIGAINPNNGGTTYNQKFKGKATLTVDKSSSTAYMELRSLTSEDSAVYYCAPNWDWFAYWGQGTLVTVSA VL: DVLMTQIPLSLPVSLGDQASISCRSSQSILHSNGNTYLEWYLQKPGQSPKLLIYKVSNRFSGVPDRFSGSGSGTDFTLKISRVEAEDLGVYYCFQGSHVPFTFGSGTKLEIK", "values": [{"measurement": "IF signal / colocalization with V5-tag epitope signal", "setting": "[1]", "result": "colocalize (merge) with V5-tag epitope signal"}, {"measurement": "Signal on mock transfected HEK293T cells", "setting": "[1]", "result": "no V5 signal or SAS1B signal"}, {"measurement": "Cytotoxic effect", "setting": "[2]; [3]", "result": "strong cytotoxic effect at 0.1 nM and higher concentrations"}, {"measurement": "Cytotoxic effect", "setting": "[2]; [4]", "result": "no cytotoxic effect"}, {"measurement": "Cell killing effects as antibody-duocarmycin conjugates on SAS1B+ human tumor cells (FIG. 28)", "setting": "[2]", "result": "sub-nanomolar concentrations"}]}, {"molecule": "SB3: mouse anti-human SAS1B monoclonal antibody, IgG2b; VH SEQ ID NO:14, VL SEQ ID NO:15 (antibody, listed as Mus musculus, V domains shown) VH: EVQLQQSGPELVKPGSSVKISCKASGYTFTDYNMVWVKQSHGKSLEWIGAVNPNNGGTSYNQKFKGKATLTVDKSSSTAYMELRSLTSEDSAVYYCVPNWDWFAYWGQGTLVTVSA VL: DVLMTQTPLSLPVSLGDQASISCRSSQSLVHSNGNTYLEWYLQKPGQSPNLLIYKVSNRFSGVPDRFSGSGSGTDFTLKISRVEAEDLGVYYCFQGSHVPFTFGSGTKLEIK", "values": [{"measurement": "IF signal / colocalization with V5-tag epitope signal", "setting": "[1]", "result": "colocalize (merge) with V5-tag epitope signal"}, {"measurement": "Signal on mock transfected HEK293T cells", "setting": "[1]", "result": "no V5 signal or SAS1B signal"}, {"measurement": "Viability", "setting": "[2]; [3]", "result": "40% and 42%"}, {"measurement": "Cytotoxic effect", "setting": "[2]; [3]", "result": "strongest cytotoxic effect; also recorded: strong cytotoxic effect at 0.1 nM and higher concentrations"}, {"measurement": "Cytotoxic effect", "setting": "[2]; [4]", "result": "no cytotoxic effect"}, {"measurement": "Cell killing effects as antibody-duocarmycin conjugates on SAS1B+ human tumor cells (FIG. 28)", "setting": "[2]", "result": "sub-nanomolar concentrations"}]}, {"molecule": "SB4: mouse anti-human SAS1B monoclonal antibody, IgG2a; VH SEQ ID NO:16, VL SEQ ID NO:17 (antibody, listed as Mus musculus, V domains shown) VH: EVQLQQSGPELVKPGSSVKISCKPSGYTFTDYNMVWMKQSHGKSLEWIGAINPNNGGTTYNQKFKGKATLTVDKSSSTAYMELRSLTSEDSAVYYCAPNWDWFAYWGQGTLVTVSA VL: DVLMTQTPLSLPVSLGDQASISCRSSQSILHSNGNTYLEWYLQKPGQSPKLLIYKVSNRFSGVPDRFSGSGSGTDFTLKISRVEAEDLGVYYCFQGSHVPFTFGSGTKLEIK", "values": [{"measurement": "IF signal / colocalization with V5-tag epitope signal", "setting": "[1]", "result": "colocalize (merge) with V5-tag epitope signal; also recorded: recognizing native SAS1B in fixed cells"}, {"measurement": "Signal on mock transfected HEK293T cells", "setting": "[1]", "result": "no V5 signal or SAS1B signal"}, {"measurement": "Viability", "setting": "[2]; [3]", "result": "~80", "unit": "%"}, {"measurement": "Cytotoxic effect", "setting": "[2]; [3]", "result": "cytotoxic effect at 0.01, 0.1 nM and higher concentrations; also recorded: strong cytotoxic effect at 0.1 nM and higher concentrations"}, {"measurement": "Cytotoxic effect", "setting": "[2]; [4]", "result": "no cytotoxic effect"}, {"measurement": "Cell killing effects as antibody-duocarmycin conjugates on SAS1B+ human tumor cells (FIG. 28)", "setting": "[2]", "result": "sub-nanomolar concentrations"}]}]}
